5 molecules from patent US20250283030A1, “Biosynthesis of Phenylpropanoid Compounds” (BGENE GENETICS, priority 2021, published 2025) can be followed below.

The test system of data set [1] is wild-type Pseudomonas putida AroF-I enzyme. As to the kind of experiment: Enzymatic activity assay (PEP consumption by HPLC), inhibition by tyrosine. It counts as biochemical. Conditions: 1 mM tyrosine, 300 μM PEP, 300 μM E4P, 60 minutes at 30° C., FIG. 1. On the procedure:
The activity of the enzymes is measured by monitoring the disappearance of the substrate using HPLC (High Pressure Liquid Chromatography) detection. The reaction is performed in a final volume of 200 μl with 40 mM of phosphate buffer, pH 7, 300 μM of phospho(enol)pyruvate (PEP), 20 μg of purified enzyme, 1 mM of tyrosine (or another aromatic amino acid) or 3 μM of HCl, the volume being completed with ultrapure water. After pre-incubation for 2 minutes at 30° C., the reaction is initiated by adding 300 μM of erythrose-4-phosphate […]) and the reaction mixture is incubated for 60 minutes at 30° C. Finally, the mixture is heated for 5 minutes at 80° C. in order to stop the reaction and precipitate the proteins. The enzymatic activity assays are firstly centrifuged for 10 minutes at 15 000×g in order to precipitate the proteins. The supernatant obtained is filtered over a 0.22 μm membrane before HPLC analysis. The method used is described below: • System: Agilent 1100 (Agilent) • Column: Luna OMEGA polar C18 (Phenomenex) • Mobile phase: 1 mM phosphoric acid • Flow rate: 0.3 ml/min • UV detection: 220 nm • Injection: 5 μl • Duration of analysis: 15 minutes In order to quantify the amount of PEP present in the samples, a series of standards is analyzed, with PEP concentrations from 0.1 mM to 1 mM.

Data set [2] deals with AroF-I enzyme. As to the kind of experiment: Enzymatic activity assay (PEP consumption by HPLC) of AroF-I mutants with or without tyrosine. It counts as biochemical, Pseudomonas putida. Conditions: for resistance of the enzyme to inhibition by tyrosine: 1 mM tyrosine, PEP consumed compared to AroF-I WT, FIG. 2-4; for enzymatic activity (PEP consumed): in the presence or absence of tyrosine, FIG. 3. As to the method: In order to express and purify the AroF-I enzyme and the mutants derived therefrom, the corresponding genes are cloned in a pET28_b(+) plasmid with a His tag grafted to the N-terminal part of the protein (upstream of the gene's ATG).
The activity of the enzymes is measured by monitoring the disappearance of the substrate using HPLC (High Pressure Liquid Chromatography) detection.
The reaction is performed in a final volume of 200 μl with 40 mM of phosphate buffer, pH 7, 300 μM of phospho(enol)pyruvate (PEP), 20 μg of purified enzyme, 1 mM of tyrosine (or another aromatic amino acid) or 3 μM of HCl, the volume being completed with ultrapure water.
After pre-incubation for 2 minutes at 30° C., the reaction is initiated by adding 300 μM of erythrose-4-phosphate (E4P) and the reaction mixture is incubated for 60 minutes at 30° C.
Finally, the mixture is heated for 5 minutes at 80° C. in order to stop the reaction and precipitate the proteins.
The enzymatic activity assays are firstly centrifuged for 10 minutes at 15 000×g in order to precipitate the proteins. The supernatant obtained is filtered over a 0.22 μm membrane before HPLC analysis.
The method used is described below: • System: Agilent 1100 (Agilent) • Column: Luna OMEGA polar C18 (Phenomenex) • Mobile phase: 1 mM phosphoric acid • Flow rate: 0.3 ml/min • UV detection: 220 nm • Injection: 5 μl • Duration of analysis: 15 minutes
In order to quantify the amount of PEP present in the samples, a series of standards is analyzed, with PEP concentrations from 0.1 mM to 1 mM.

Numbering of substitutions follows the chain as printed. Names and notes keep the numbering of the source. “Also recorded” adds a separate entry of the source.

With `N[C@@H](Cc1ccc(O)cc1)C(=O)O` [tyrosine], the “activity of the wild-type AroF-I enzyme in the presence of tyrosine” value in data set [1] is listed as “inhibited”.

B1: P160L/Q164A: Pseudomonas putida AroF-I DAHP synthase with P160L/Q164A double mutation, SEQ ID NO:3 (protein, listed as Pseudomonas putida)
chain: LAAGTRDLTSNTMADLPIDDLNVASNETLITPDQLKKEIPLSAKALQTVTAGREVVRNILDGKDHRLFVVVGPCSIHDIKAAHEYAERLKVLAEEVSDTLYLVMRVYFEKPRTTVGWKGLINDPYLDDSFKIQDGLHIGRKLLLDLAEMGLPTATEALDLISPAYLQDLISWSAIGARTTESQTHREMASGLSSAVGFKNGTDGGLTVAINALQSVSKPHRFLGINQEGGVSIVTTKGNPYGHVVLRGGNGKPNYDSVSVALCEQDLAKAKIKANIMVDCSHANSNKDPALQPLVMENVANQILEGNQSIIGLMVESHLNWGCQSIPKNLDDLQYGVSITDACIDWSATEKTLRSMHAKLKDVLPQRKRGLAAGTRDLTSNTMADLPIDDLNVASNETLITPDQLKKEIPLSAKALQTVTAGREVVRNILDGKDHRLFVVVGPCSIHDIKAAHEYAERLKVLAEEVSDTLYLVMRVYFEKPRTTVGWKGLINDPYLDDSFKIQDGLHIGRKLLLDLAEMGLPTATEALDLISPAYLQDLISWSAIGARTTESQTHREMASGLSSAVGFKNGTDGGLTVAINALQSVSKPHRFLGINQEGGVSIVTTKGNPYGHVVLRGGNGKPNYDSVSVALCEQDLAKAKIKANIMVDCSHANSNKDPALQPLVMENVANQILEGNQSIIGLMVESHLNWGCQSIPKNLDDLQYGVSITDACIDWSATEKTLRSMHAKLKDVLPQRKRG
B1: the “resistance of the enzyme to inhibition by tyrosine” value in data set [2] was “slightly improved”.

B2: P160L: Pseudomonas putida AroF-I DAHP synthase with P160L mutation, SEQ ID NO:2 (protein, listed as Pseudomonas putida)
chain: LAAGTRDLTSNTMADLPIDDLNVASNETLITPDQLKKEIPLSAKALQTVTAGREVVRNILDGKDHRLFVVVGPCSIHDIKAAHEYAERLKVLAEEVSDTLYLVMRVYFEKPRTTVGWKGLINDPYLDDSFKIQDGLHIGRKLLLDLAEMGLPTATEALDLISPQYLQDLISWSAIGARTTESQTHREMASGLSSAVGFKNGTDGGLTVAINALQSVSKPHRFLGINQEGGVSIVTTKGNPYGHVVLRGGNGKPNYDSVSVALCEQDLAKAKIKANIMVDCSHANSNKDPALQPLVMENVANQILEGNQSIIGLMVESHLNWGCQSIPKNLDDLQYGVSITDACIDWSATEKTLRSMHAKLKDVLPQRKRG
For the molecule B2, the “resistance of the enzyme to inhibition by tyrosine” value in data set [2] is listed as “partially resistant”.

B3: P160L/S193A: Pseudomonas putida AroF-I DAHP synthase with P160L/S193A double mutation, SEQ ID NO:4 (protein, listed as Pseudomonas putida)
chain: B2 chain with S193A
On to B3, for which, in data set [2], the “resistance of the enzyme to inhibition by tyrosine” value is “virtually completely resistant; also recorded: synergistic effect” and the “enzymatic activity (PEP consumed)” value is given as “restored virtually all the enzymatic activity”.

B4: P160L/G191K: Pseudomonas putida AroF-I DAHP synthase with P160L/G191K double mutation (protein)
chain: B2 chain with G191K
In the case of B4, the “enzymatic activity (PEP consumed)” value in data set [2] is “no longer has any activity”.
